Here are results for one molecule from patent publication CN105542009A (UNIV NANCHANG, dated 2016).

Assay [1] concerns the target T1, 前列腺特异性膜抗原 (PSMA) on LNCaP cells (UniProt Q04609 1-750, limits assumed).
T1 construct: whole, on cells; Endogenous PSMA on LNCaP cells; MKN45 cells (no PSMA) served as negative cells; also called prostate specific membrane antigen
Briefly: cell ELISA on fixed LNCaP (PSMA+) against MKN45 (PSMA-) cells, HRP-anti-M13 detection. For orientation: ELISA stands for enzyme-linked immunosorbent assay.

For assay [2], the target named is T2, PSMA胞外区蛋白 (重组表达的前列腺特异性膜抗原膜外区) (UniProt Q04609 44-750).
T2 construct: extracellular domain; also called PSMA蛋白; PSMA抗原; not shown: His tag from vector pRAG2a (purified by HisTrap, detected by anti-His antibody)
T2 sequence (Q04609 44-750): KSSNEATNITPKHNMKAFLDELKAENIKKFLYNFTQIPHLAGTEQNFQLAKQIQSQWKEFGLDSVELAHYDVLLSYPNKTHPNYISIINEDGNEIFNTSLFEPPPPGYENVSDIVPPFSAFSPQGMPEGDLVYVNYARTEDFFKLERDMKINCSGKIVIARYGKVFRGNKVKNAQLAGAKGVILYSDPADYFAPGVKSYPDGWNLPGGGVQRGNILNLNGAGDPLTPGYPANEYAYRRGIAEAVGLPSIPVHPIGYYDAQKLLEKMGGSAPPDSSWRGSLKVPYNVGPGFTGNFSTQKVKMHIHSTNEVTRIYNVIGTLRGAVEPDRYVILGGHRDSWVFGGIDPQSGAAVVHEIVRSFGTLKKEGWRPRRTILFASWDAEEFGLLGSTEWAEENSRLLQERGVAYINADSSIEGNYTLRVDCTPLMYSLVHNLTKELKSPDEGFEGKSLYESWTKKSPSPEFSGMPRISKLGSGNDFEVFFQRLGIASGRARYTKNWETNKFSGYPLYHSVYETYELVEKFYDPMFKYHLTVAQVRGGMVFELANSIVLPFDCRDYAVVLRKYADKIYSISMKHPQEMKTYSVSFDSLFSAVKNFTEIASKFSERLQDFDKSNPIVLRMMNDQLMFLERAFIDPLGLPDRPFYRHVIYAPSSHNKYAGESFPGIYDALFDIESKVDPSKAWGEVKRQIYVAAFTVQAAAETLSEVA
Briefly: indirect phage-ELISA, PSMA extracellular region coated at 5 μg/mL, HRP-anti-M13 detection.

T1 sequence (Q04609 whole entry): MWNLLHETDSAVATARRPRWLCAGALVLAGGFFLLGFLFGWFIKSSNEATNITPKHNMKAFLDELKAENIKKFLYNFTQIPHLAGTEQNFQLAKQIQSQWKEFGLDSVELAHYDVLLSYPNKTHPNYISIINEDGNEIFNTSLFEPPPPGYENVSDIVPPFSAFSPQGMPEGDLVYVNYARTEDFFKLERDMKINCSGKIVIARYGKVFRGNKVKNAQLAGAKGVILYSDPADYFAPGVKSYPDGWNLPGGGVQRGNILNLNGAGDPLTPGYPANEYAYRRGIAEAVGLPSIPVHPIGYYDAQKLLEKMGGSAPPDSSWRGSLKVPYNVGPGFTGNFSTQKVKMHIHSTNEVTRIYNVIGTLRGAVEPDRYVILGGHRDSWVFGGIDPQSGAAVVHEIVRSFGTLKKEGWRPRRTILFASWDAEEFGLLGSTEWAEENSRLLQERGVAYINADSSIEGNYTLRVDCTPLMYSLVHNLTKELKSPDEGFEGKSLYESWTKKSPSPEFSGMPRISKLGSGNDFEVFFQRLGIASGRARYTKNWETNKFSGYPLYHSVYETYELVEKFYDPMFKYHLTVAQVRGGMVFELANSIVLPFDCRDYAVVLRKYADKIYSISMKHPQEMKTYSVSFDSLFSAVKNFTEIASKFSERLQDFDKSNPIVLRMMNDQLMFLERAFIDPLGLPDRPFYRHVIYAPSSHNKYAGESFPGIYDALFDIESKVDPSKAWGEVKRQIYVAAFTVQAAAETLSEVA

B1: 抗前列腺特异性膜抗原单域重链抗体噬菌体阳性克隆 (VHH)
VHH: QVQLVESGGGLVQAGGSLRLSCAASGRTFSRRDMGWFRQAPGKEREFVASISRSSAYTNYADSVKDRFTISRDNAKNTVYLQMYNLKPEDTAVYYCAAANYSTTRASAYRYWGQGTQVTVSS
notes: also called 针对前列腺特异性膜抗原的单域重链抗体阳性克隆; 展示本发明所述纳米抗体的噬菌体克隆; not shown: the phage coat protein fusion and any linker or tag are not described
Turning to B1, the binding result in assay [1] and in assay [2] was “binds” throughout.
